Source: patent US12091776B2, “Protease activity profiling via programmable phage display of comprehensive proteome-scale peptide libraries” (THE JOHNS HOPKINS UNIVERSITY, priority 2019, dated 2024)

B1: VASN: Vasorin, known ADAM17 substrate; library peptide amino acids 496-585 (protein)
peptide: LTYRNLSGPDKRLVTLRLPASLAEYTVTQLRPNATYSVCVMPLGPGRVPEGEEACGEAHTPPAVHSNHAPVTQAREGNLPLLIAPALAAV
B2: EIVPASLQRVRRPVAMVMPARRTPHVQAVQGPLGSPPKRGPLPTEEQRVYRRKELEEVSPETPVVPATTQRTLARPGPEPAPATDERDRV (protein, listed as Homo sapiens)
chain: EIVPASLQRVRRPVAMVMPARRTPHVQAVQGPLGSPPKRGPLPTEEQRVYRRKELEEVSPETPVVPATTQRTLARPGPEPAPATDERDRV
B3: PVTSTSSASTGHATPLPVTGLSSATTDDTTRLPVTDVSSASTGQATPLPVTSLSSVSTGDTTPLPVTSPSSASTGHASPLLVTDASSAST (protein, listed as Homo sapiens)
chain: PVTSTSSASTGHATPLPVTGLSSATTDDTTRLPVTDVSSASTGQATPLPVTSLSSVSTGDTTPLPVTSPSSASTGHASPLLVTDASSAST
B4: YVAPLTAQPATYRAQPSVSLGAAYRAQPSASLGVGYRTQPMTAQAASYRAQPSVSLGAPYRGQLASPSSQSAAASSLGPYGGAQPSASAL (protein, listed as Homo sapiens)
chain: YVAPLTAQPATYRAQPSVSLGAAYRAQPSASLGVGYRTQPMTAQAASYRAQPSVSLGAPYRGQLASPSSQSAAASSLGPYGGAQPSASAL
B5: SPLIAPVMGTVAVSLSSPLLSSTATPPGVSQNLLANPMSNLVLPEAPRLRLAEPLRGGPTGPQSPACVVPTATTKVPLSTEPPQSTQDPE (protein, listed as Homo sapiens)
chain: SPLIAPVMGTVAVSLSSPLLSSTATPPGVSQNLLANPMSNLVLPEAPRLRLAEPLRGGPTGPQSPACVVPTATTKVPLSTEPPQSTQDPE
B6: SSVSTGHTTPLHVTDASSASTGQATPLPVTSLSSVSTGDTTPLPVTSPSSASTGHATPLLVTDTSSASTGHATPLPVTDASSVSTDHATS (protein, listed as Homo sapiens)
chain: SSVSTGHTTPLHVTDASSASTGQATPLPVTSLSSVSTGDTTPLPVTSPSSASTGHATPLLVTDTSSASTGHATPLPVTDASSVSTDHATS
B7: QSVSPVQAPPPGGSAQLLPGKVLVPLAAPSMSVRGGGAGQPLPLVSPPFSVPVQNGAQPPSKIIQLTPVPVSTPSGLVPPLSPATLPGPT (protein, listed as Homo sapiens)
chain: QSVSPVQAPPPGGSAQLLPGKVLVPLAAPSMSVRGGGAGQPLPLVSPPFSVPVQNGAQPPSKIIQLTPVPVSTPSGLVPPLSPATLPGPTA
B8: HSALPFRLQLRRGEARLGEERHFQESGNSSWEILRASKAEEGTYECTAVSRAGTGRAKAQIVVTDPPPQLVPAPNVTVSPGETAVLSCRV (protein, listed as Homo sapiens)
chain: HSALPFRLQLRRGEARLGEERHFQESGNSSWEILRASKAEEGTYECTAVSRAGTGRAKAQIVVTDPPPQLVPAPNVTVSPGETAVLSCRV
B9: IAAKAQLARQQSPSPIRHSPSPVRHVRAPTPSPVRSVSPAARISTSPIRSVRSPLLMRKTQASTVATGPEVPPPWKQEGYVASSSEAEMR (protein, listed as Homo sapiens)
chain: IAAKAQLARQQSPSPIRHSPSPVRHVRAPTPSPVRSVSPAARISTSPIRSVRSPLLMRKTQASTVATGPEVPPPWKQEGYVASSSEAEMR
B10: ARQEKLAFQEDSRSTLSRRELDAAHTGTTGQDSDFPVTAASTVDFLKIKKSCEENVCRSLKDCEMEKCPDSCAHEMESVADHEPNKRILG (protein, listed as Homo sapiens)
chain: ARQEKLAFQEDSRSTLSRRELDAAHTGTTGQDSDFPVTAASTVDFLKIKKSCEENVCRSLKDCEMEKCPDSCAHEMESVADHEPNKRILG
B11: ATPGAPGSSTPGEADIGNTSFGKSGKSGHDSLTVLNPAFLRRTPTVSAASTTSSPVSKHTDAASATAVTISGSKPGTPGTPGGATSGGKI (protein, listed as Homo sapiens)
chain: ATPGAPGSSTPGEADIGNTSFGKSGKSGHDSLTVLNPAFLRRTPTVSAASTTSSPVSKHTDAASATAVTISGSKPGTPGTPGGATSGGKI
B12: MELQSRPEALAVELARHQNGDLKKQLHERQPRIAALSDKQALGTITAVPVTGPQVSSLQRLAGQGAAVLPQVRPKTLIPDSLPVAPGRDR (protein, listed as Homo sapiens)
chain: MELQSRPEALAVELARHQNGDLKKQLHERQPRIAALSDKQALGTITAVPVTGPQVSSLQRLAGQGAAVLPQVRPKTLIPDSLPVAPGRDR
B13: KAGVVTLHSVGPTAATGTTAGTGLLQTSKPLVTSVANTVTTVSLQPEKPVVSGTAVTLSLPAVTFGETSGAAICLPSVKPVVSSAGTTS (protein, listed as Homo sapiens)
chain: KAGVVTLHSVGPTAATGTTAGTGLLQTSKPLVTSVANTVTTVSLQPEKPVVSGTAVTLSLPAVTFGETSGAAICLPSVKPVVSSAGTTS
B14: EPEPTPGLVLSKPALEEEEAPRALSLLSLPPKKRSILGLGQARPLEFLRTCYGGSFLVHESFLYKREKAVGDKVYWTCRDHALHGCRSRA (protein, listed as Homo sapiens)
chain: EPEPTPGLVLSKPALEEEEAPRALSLLSLPPKKRSILGLGQARPLEFLRTCYGGSFLVHESFLYKREKAVGDKVYWTCRDHALHGCRSRA
B15: KVATLPLSSRAGAPPAAVPIINMILPTVPALPGPGPGPGRAPPGGLTQPRGTENREVGIGGDQGPHDKGVKRTAEVPVSEASGQAPPAKA (protein, listed as Homo sapiens)
chain: KVATLPLSSRAGAPPAAVPIINMILPTVPALPGPGPGPGRAPPGGLTQPRGTENREVGIGGDQGPHDKGVKRTAEVPVSEASGQAPPAKA
B16: VLNSGARVWPSASALGLTAPPKDAEDRARPASGLRGARVLSEGREPRASLRVQVRPGLDVAAPGVCSLSCPSPPRSSAHPGPRGPLFPAL (protein, listed as Homo sapiens)
chain: VLNSGARVWPSASALGLTAPPKDAEDRARPASGLRGARVLSEGREPRASLRVQVRPGLDVAAPGVCSLSCPSPPRSSAHPGPRGPLFPAL
B17: PARLLGPSLTSTTPASSSSGSSSRGPSDTSSRFSKEQRGVAQPLAQLRSCPQEEGPRGRGLAARPLENRAGGPVARSEEPGAPLPVAVGT (protein, listed as Homo sapiens)
chain: PARLLGPSLTSTTPASSSSGSSSRGPSDTSSRFSKEQRGVAQPLAQLRSCPQEEGPRGRGLAARPLENRAGGPVARSEEPGAPLPVAVGT
B18: … (protein, listed as Homo sapiens)
chain: STRPVLASIEPELPMQLVSQDDESGQKKLHGLQAILVHEASGTTAITATATGYQESHLSSARTKQPHDPLVPLSASIELILVEDVRVSPE
B19: RLALPLRSLSASSGWNESCSSQSDISLDHVQRRRSRLKEPPELQSSERAAGSPPAPGTMSKHRGKSSATCRCCVTYCEGENHLRNKSRAE (protein, listed as Homo sapiens)
chain: RLALPLRSLSASSGWNESCSSQSDISLDHVQRRRSRLKEPPELQSSERAAGSPPAPGTMSKHRGKSSATCRCCVTYCEGENHLRNKSRAE

molecular target: T1, ADAM17 (Homo sapiens, UniProt P78536); assay: SEPARATE assay: human peptidome library digest with ADAM17; assay type: biochemical; conditions: human library, ADAM17; peptide amino acids 496-585
T1 construct: purchased RnD Systems
Description: Streptavidin-coupled magnetic beads (Dynabeads M-280 Streptavidin, ThermoFisher Scientific) were washed (TBS, pH 7.4, 0.01% NP40) and resuspended in binding buffer (TBS, pH 7.4, 0.001% NP40) containing 2E9 plaque forming units per 10 μl of bead slurry. End-over-end mixing at room temperature was performed for one hour. Phage-coated beads were washed three times with wash buffer and transferred into two protein LoBind Eppendorf tubes blocked with TBS, pH 7.4 containing 1% BSA.
Digestion occurred overnight at room temperature with end-over-end rotation. […] To remove any residual biotinylated phage that may have been nonspecifically released, the 150 μl supernatant of the quenched digest reaction is then incubated with a fresh 10 μl of slurry volume M280 streptavidin beads (pre-washed three times with wash buffer) in a LoBind Eppendorf tube blocked with TBS, pH 7.4 containing 1% BSA at room temperature for one hour with end-over-end rotation.
10 μl slurry volume of protein G magnetic dynabeads were washed in buffer (TBS, pH 7.4, 0.01% NP40) and then resuspended in 50 μl TBS, pH 7.4, 0.01% NP40 containing 4 μg of M2 FLAG antibody for thirty minutes at room temperature with end-over-end rotation. The 150 μl quenched digest reaction is added to the 10 μl FLAG-coated Protein G beads and incubated for 60 minutes at room temperature with end-over-end rotation to capture phage particles released at the protease digest step. Beads are rinsed once with 100 μl wash buffer and stored at −80° C. until PCR amplification.
Library PCR preparation, high-throughput DNA sequencing, and peptide read count data generation was performed as described previously.^44 Briefly, library peptide inserts are amplified by resuspending 10 μl of FLAG-coated Protein G beads in PCR1 master mix containing the T7-Pep2_PCR1_F forward primer ([…]) (SEQ ID NO:3) and a T7-SEPARATE vector specific reverse primer ([…]) (SEQ ID NO:4), which includes an adapter sequence for sample-specific barcoding and Illumina P7 adapter incorporation during a subsequent PCR2 reaction. The PCR2 amplicons are pooled and sequenced using an Illumina NextSeq instrument in standard output mode to obtain single-end 50 nucleotide reads. Dual indexed sample demultiplexing and clonal read count determination were performed using exact sequence matching. […] To calculate the normalization factor, 100 peptides were randomly selected from the mock digest conditions with a read count ranging between 10 and 40. The median read count value for these 100 peptides is calculated for each sample. The random peptide selection and median calculation is performed 20 times and the average of the 20 median values is calculated for each sample. Finally, the normalization factor is calculated by dividing the average median value for each sample by that for one of the mock digest conditions. Read counts are then converted to normalized read counts by dividing each sample's read count values by the normalization factor. Fold enrichments are calculated for each peptide by dividing their normalized read counts in the digest condition by the normalized read counts in the mock digest condition. The fold enrichments can be visualized in an MA plot by transforming the normalized read count data into a log ratio (M, on the y-axis) and a mean average (A, on the x-axis) between the digest and mock digest conditions.

T1 sequence (P78536 215-824): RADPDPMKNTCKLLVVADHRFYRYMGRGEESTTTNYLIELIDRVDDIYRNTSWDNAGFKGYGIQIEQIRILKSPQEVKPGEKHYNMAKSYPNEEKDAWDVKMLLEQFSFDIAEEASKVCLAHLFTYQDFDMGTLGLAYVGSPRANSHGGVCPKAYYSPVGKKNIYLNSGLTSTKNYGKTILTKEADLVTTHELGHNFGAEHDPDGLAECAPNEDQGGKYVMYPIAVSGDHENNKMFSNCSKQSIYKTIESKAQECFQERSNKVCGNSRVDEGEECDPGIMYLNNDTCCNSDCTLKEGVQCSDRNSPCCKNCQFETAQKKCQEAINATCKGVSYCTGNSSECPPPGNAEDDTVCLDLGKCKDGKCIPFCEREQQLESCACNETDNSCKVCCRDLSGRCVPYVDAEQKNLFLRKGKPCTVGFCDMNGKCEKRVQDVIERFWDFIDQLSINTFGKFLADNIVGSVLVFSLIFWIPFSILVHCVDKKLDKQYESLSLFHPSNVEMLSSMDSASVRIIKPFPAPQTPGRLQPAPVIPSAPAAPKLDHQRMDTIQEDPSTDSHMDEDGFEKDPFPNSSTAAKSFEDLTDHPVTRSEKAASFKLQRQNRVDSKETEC

For B1, the “known substrate peptide identified by SEPARATE” value was “identified”.

same assay, conditions: top 20 enriched peptides, human library (90-aa tiles); digest vs mock digest

Going from B2 to B3, the “Adam17 Fold Change” value rises from 34.93 fold to 41.41 fold.

Going from B4 to B5, the “Adam17 Fold Change” value rises from 39.99 fold to 51.48 fold.

Going from B6 to B7, the “Adam17 Fold Change” value rises from 48.17 fold to 57.55 fold.

First: B8
Second: B9
The “Adam17 Fold Change” value of the first is higher: 43.29 fold for the first, 37.14 fold for the second.

Compared with B10, B11 is higher in “Adam17 Fold Change” value: 34.10 fold for the first, 39.34 fold for the second.

First: B12
Second: B13
The “Adam17 Fold Change” value of the first is lower: 38.34 fold for the first, 39.07 fold for the second.

B14 and B15 are the same in “Adam17 Fold Change” value: 35.48 fold for the first, 35.48 fold for the second.

Going from B16 to B17, the “Adam17 Fold Change” value rises from 44.03 fold to 45.89 fold.

Going from B18 to B19, the “Adam17 Fold Change” value rises from 34.57 fold to 39.89 fold.
